Results from patent US20180086829A1 (published 2018).
Values belong to the binder of their own block, whether it stands above or below them.

How the values were obtained:
human LILRB4 [1] = target: T1, human LILRB4 (human, UniProt Q8NHJ6 22-259, limits assumed); experiment: ELISA; lower end of the range, tied to #214 by Table 1
T1 construct: also called leukocyte immunoglobulin-like receptor subfamily B member 4

human LILRB4 [2] = target: T1, human LILRB4; experiment: ELISA; upper end of the range, tied to #216-1 by Table 1
human LILRB4 [3] = target: T1, human LILRB4; experiment: ELISA

- EC50 (human LILRB4 [1]): 50 pM
B1: anti-LILRB4 rabbit monoclonal antibody #214 (antibody, V domains shown)
VH: QSVKESGGRLVTPGTPLTLTCTVSGFSLSSYWMHWVRQAPGKGLEWVGVVSVSGNFYYATWAKGRFTISKTSTTVDLKITSPTIEDTAFYFCTMSFALWGQGTLVTISS
VL: ELVMTQTASPVSAAVGGTVTINCQSSQSVYSNNNLGWLKQKPGQPPKELIYYASTLASGVPSRFKGSGSGTQFTLTISDLECDDAATYYCVGGYGCSSADCSVFGGGTEVEIK
notes: Rabbit monoclonal antibody

- EC50 (human LILRB4 [2]): 300 pM
B2: anti-LILRB4 rabbit monoclonal antibody #216-1 (antibody, V domains shown)
VH: EQSVEESGGGLVKPGASLTLTCIASGFSFSSSYVMCWVRQAPGKGLELIACIHAGGSGSTYYASWAKGRFTISKTSSTTVTLQMTSLTAADTATYFCARYNYHFYYIGDYSDLWGPGTLVTVSS
VL: ELVMTQTPSSVSAAVGGTVTIKCQASEDIDSYLAWYQQKPGQRPKVLIYRASTLASGVPSRFKGSGSGTEFTLTISGLECDDAATYYCQQGWSNDVGSNAFGGGTKVEIK
notes: Rabbit monoclonal antibody

- EC50 (human LILRB4 [3]): 80.8 pM
B3: anti-LILRB4 rabbit monoclonal antibody #78 (antibody, V domains shown)
VH: QSLQESGGRLVTPGTPLTLTCTVSGIDLSVYLMSWVRQSPGKGLEYIGFINSAGITAYATWAKGRFIISKTSTTVDLKVTSPTTEDTATYFCARNWIRLDLWGQGTLVTISS
VL: ELVLTQTPASVSAAVGGTVTISCQSSESIYKNYLSWFQQKPGQPPKLLIYETSKLASGVPSRFSGSGSGTQFTLTISDVQCDDAATYYCLGGYTNGRDTIFGGGTELEIK
notes: Rabbit monoclonal antibody; also called mAb 78; bin 1
